Measured values: US20250339531A1, “DUX4 POLYPEPTIDES AND NUCLEIC ACIDS FOR TREATING INFLAMMATORY AND AUTOIMMUNE CONDITIONS” (Fred Hutchinson Cancer Center, priority 2021, published 2025)

Assays:
[1] = tested on: interferon-stimulated genes IFIH1, ISG20, CXCL9, and CD74; test: IFNG induction of interferon-stimulated genes, RT-qPCR in MB135 cells with doxycycline-inducible transgenes; assay type: cell-based, human; conditions: MB135 cells, doxycycline-induced transgene, continuous protocol, IFNG 16 h
Experimental: All myoblast experiments were conducted in immortalized MB135 or MB200 myoblast cell lines (isolated from a control or FSHD2 subject, respectively cultured in Ham's F-10 Nutrient Mix (Gibco) supplemented with 15% fetal bovine serum (Hyclone), 100 U/100 μg/ml penicillin/streptomycin (Gibco), 1 μM dexamethasone (Sigma), and 10 ng/ml recombinant human basic fibroblast growth factor (PeproTech). To differentiate the myoblasts to myotubes, media was changed to DMEM supplemented with 10 μg/ml insulin (Sigma) and 10 μg/ml transferrin (Sigma). Cell lines containing doxycycline-inducible transgenes were additionally cultured with 2 μg/mL puromycin (Sigma). Transgenes were induced with 1 μg/mL of doxycycline (Sigma) for 4 hours prior to other treatments for a total of 20 hrs. The Kitra-SRS cells (RRID:CVCL_YI69) were provided by Dr. H. Otani and Osaka University (Nakai et al., 2019) and were cultured in DMEM supplemented with 10% fetal bovine serum (Hyclone) and 100 U/100 μg/ml penicillin/streptomycin (Gibco). Biological replicates consisted of independent but parallel experiments, such as simultaneously stimulating three cell culture plates with IFNγ. Technical replicates consisted of repeat measurements of the same biological sample, such as loading the same biological sample in triplicate for analysis by RT-qPCR.
Myoblasts were transfected with either (final concentrations) 10 μM 2′,3′-cGAMP (Sigma Aldrich), 2 μg/mL poly(I:C) (Invitrogen), or 1 μg/mL 3′ppp-dsRNA RIG-I ligand (Dan Stetson Lab, UW) using Lipofectamine 2000 according to manufacturer's protocol, or were stimulated with 1000U IFNβ (PeproTech) or 200 ng/ml IFNγ (R+D Systems) by addition directly to cell culture medium. After 16 hours of immune stimulation, RNA was collected from cells using the NucleoSpin RNA Kit (Macherey-Nagel) according to manufacturer's instructions. RNA samples were quantified by nanodrop and 1 μg of RNA per sample was treated with DNase I Amplification Grade (Thermo Fisher), and then synthesized into cDNA using the Superscript IV First-Strand Synthesis System, including oligo dT primers (Invitrogen). qPCR was run in 384-well plates on an Applied Biosystems QuantStudio 6 Flex Real-Time PCR System (ABI) and analyzed in Microsoft Excel.

pSTAT1-Y701, pSTAT1-S727 = target: T1, pSTAT1-Y701, pSTAT1-S727 (Homo sapiens, UniProt P42224); test: Western analysis of whole-cell extracts for STAT1 and pSTAT1; assay type: cell-based; conditions: doxycycline and IFNG
T1 construct: co-localization of endogenous STAT1 and pSTAT1 701 with the iDUX4-CTD; endogenous in cells; host or cells: MB135 human myoblasts carrying doxycycline-inducible DUX4 / DUX4-CTD / DUXB / Dux transgenes, with or without IFNG
T1 sequence (P42224 1-750): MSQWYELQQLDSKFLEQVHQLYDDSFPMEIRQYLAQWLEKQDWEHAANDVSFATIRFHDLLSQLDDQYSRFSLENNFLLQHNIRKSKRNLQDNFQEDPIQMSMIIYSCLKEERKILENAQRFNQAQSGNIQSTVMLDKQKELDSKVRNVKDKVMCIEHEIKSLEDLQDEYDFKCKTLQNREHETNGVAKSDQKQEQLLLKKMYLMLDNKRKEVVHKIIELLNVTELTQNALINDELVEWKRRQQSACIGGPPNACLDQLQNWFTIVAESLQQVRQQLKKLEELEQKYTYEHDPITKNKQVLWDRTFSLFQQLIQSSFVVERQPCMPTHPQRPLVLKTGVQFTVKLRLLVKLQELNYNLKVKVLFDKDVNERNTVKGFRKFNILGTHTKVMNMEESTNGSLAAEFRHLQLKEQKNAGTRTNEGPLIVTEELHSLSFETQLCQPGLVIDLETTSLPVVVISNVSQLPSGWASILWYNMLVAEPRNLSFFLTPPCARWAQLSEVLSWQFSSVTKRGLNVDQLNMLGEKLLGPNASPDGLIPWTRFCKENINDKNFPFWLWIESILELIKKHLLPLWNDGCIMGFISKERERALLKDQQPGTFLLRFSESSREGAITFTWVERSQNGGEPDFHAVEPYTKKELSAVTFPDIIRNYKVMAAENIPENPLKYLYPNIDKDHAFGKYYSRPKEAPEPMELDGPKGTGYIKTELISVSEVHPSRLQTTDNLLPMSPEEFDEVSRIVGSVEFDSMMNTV
Experimental: Protein samples were harvested in RIPA buffer [150 mM NaCl, 1% NP-40, 0.5% Na-deocycholate, 1% SDS, 25 mM Tris-HCl pH7.4] supplemented with protease and phosphatase inhibitor tablets (Pierce), followed by sonication in Diagenode Bioruptor. Lysate was cleared by centrifugation at 16000×g and quantified using a Pierce BCA assay (Thermo Fisher Scientific). Samples were run on NuPAGE precast polyacrylamide gels (Invitrogen) and transferred to PVDF membrane. Membranes were blocked in PBS containing 0.1% Tween-20 and 5% non-fat dry milk before overnight incubation at 4° C. with primary antibodies (see resource table for a list of antibodies used in this study). Membranes were incubated with horseradish peroxidase-conjugated secondary antibodies for 1 hour at room temperature and SuperSignal chemiluminescent substrate (Thermo Scientific) was used for detection on film with a Mini-medical 90 processor. Membranes were stripped with Restore Western Blot Stripping Buffer (Pierce).

B1: DUXB: related factor in the DUX family, doxycycline-inducible 3×FLAG-NLS-DUXB control, SEQ ID NO:106 (protein)
chain: DYKDHDGDYKDHDIDYKDDDDKPPKRMRREPKKKRKVNLEGTSGGILQKEFWRNRIQYNQSQKDILQSWFQHDPFPDKAAREQLAKEIGVPESNIQVWFKNYRVKQRKLDYKCFSEKDQTQGHDQSQHLTQEYLPKEARQKQTFITWTQKNRLVQAFERNPFPDIATRKKLAEQTGLQESRIQMWFQKQRSLYLKKSRMEPMNLLVDDPNERPDATVGWHPINLFLPTDSSHYFSCSHSSSGHETLPPVLPSTQAPWDPFRFHVSQGPNVMIMQPTQAVQEGEKSDQPLIIPNHLLTLPILTKDLDTPTPFWLQYQEEHQNHKEHSGSGVPQVKSHSQPEPEHREQQPLNLGQFDISNILQRWDEICQALLAEWEPLKGTH
modifications: 3xFLAG-NLS tag
- suppression of IFNG induction of ISGs (IFIH1, ISG20, CXCL9, CD74) [1]: did not suppress ISG induction by IFNG
- abundance of pSTAT1 and total STAT1 (pSTAT1-Y701, pSTAT1-S727): did not increase either form of phosphorylated STAT1
